According to paper PMC3553216 (Biochemistry, 2013):
Like-named read-outs stand apart in the source and are kept apart here.

Legend:
[1] = target: full-length SaPC F403A mutant (Staphylococcus aureus); assay: AUC
[2] = target: full-length SaPC F403A mutant (Staphylococcus aureus); assay: SEC
[3] = target: full-length SaPC F403A mutant (Staphylococcus aureus); assay: AUC; remark: listed apart in the source
[4] = target: full-length SaPC K442E mutant (Staphylococcus aureus); assay: AUC
[5] = target: full-length SaPC K442E mutant (Staphylococcus aureus); assay: SEC
[6] = target: full-length SaPC K442E mutant (Staphylococcus aureus); assay: AUC; remark: listed apart in the source
[7] = target: full-length SaPC R54E mutant (Staphylococcus aureus); assay: AUC
[8] = target: full-length SaPC R54E mutant (Staphylococcus aureus); assay: SEC
[9] = target: full-length SaPC R54E mutant (Staphylococcus aureus); assay: AUC; remark: listed apart in the source
[10] = AUC
[11] = target: isolated BC domain of SaPC, R54E mutant (Staphylococcus aureus); assay: AUC
[12] = target: the molecule itself; assay: AUC
[13] = target: the molecule itself; assay: AUC; remark: listed apart in the source

## full-length SaPC F403A mutant (enzyme)
[1]
  Dimer (%): 2%
  Kd: 450 nM
  Tetramer (%): 85%
[2]
  stoichiometry N: 4
[3]
  Kd: 11 nM

## full-length SaPC K442E mutant (enzyme)
[4]
  Dimer (%): 65%
  Kd: 820 nM
[5]
  stoichiometry N: 2
[6]
  Kd: 840000 nM

## full-length SaPC R54E mutant (enzyme)
[7]
  Dimer (%): 0%
  Kd: 530 nM
  Tetramer (%): 96%
[8]
  stoichiometry N: 4
[9]
  Kd: 3 nM

## full-length SaPC K442E mutant
[10]
  Monomer (%): 10%

## full-length SaPC R54E mutant
[10]
  Monomer (%): 4%

## isolated BC domain of SaPC, R54E mutant (domain or fragment)
[11]
  Kd: 195000 nM

## full-length SaPC F403A mutant
[10]
  Monomer (%): 9%

B1: wild-type full-length Staphylococcus aureus pyruvate carboxylase (enzyme, UniProt A0A0H3JRU9 1-1150, looked up)
chain: MKQIKKLLVANRGEIAIRIFRAAAELDISTVAIYSNEDKSSLHRYKADESYLVGSDLGPAESYLNIERIIDVAKQANVDAIHPGYGFLSENEQFARRCAEEGIKFIGPHLEHLDMFGDKVKARTTAIKADLPVIPGTDGPIKSYELAKEFAEEAGFPLMIKATSGGGGKGMRIVREESELEDAFHRAKSEAEKSFGNSEVYIERYIDNPKHIEVQVIGDEHGNIVHLFERDCSVQRRHQKVVEVAPSVGLSPTLRQRICDAAIQLMENIKYVNAGTVEFLVSGDEFFFIEVNPRVQVEHTITEMVTGIDIVKTQILVAAGADLFGEEINMPQQKDITTLGYAIQCRITTEDPLNDFMPDTGTIIAYRSSGGFGVRLDAGDGFQGAEISPYYDSLLVKLSTHAISFKQAEEKMVRSLREMRIRGVKTNIPFLINVMKNKKFTSGDYTTKFIEETPELFDIQPSLDRGTKTLEYIGNVTINGFPNVEKRPKPDYELASIPTVSSSKIASFSGTKQLLDEVGPKGVAEWVKKQDDVLLTDTTFRDAHQSLLATRVRTKDMINIASKTADVFKDGFSLEMWGGATFDVAYNFLKENPWERLERLRKAIPNVLFQMLLRASNAVGYKNYPDNVIHKFVQESAKAGIDVFRIFDSLNWVDQMKVANEAVQEAGKISEGTICYTGDILNPERSNIYTLEYYVKLAKELEREGFHILAIKDMAGLLKPKAAYELIGELKSAVDLPIHLHTHDTSGNGLLTYKQAIDAGVDIIDTAVASMSGLTSQPSANSLYYALNGFPRHLRTDIEGMESLSHYWSTVRTYYSDFESDIKSPNTEIYQHEMPGGQYSNLSQQAKSLGLGERFDEVKDMYRRVNFLFGDIVKVTPSSKVVGDMALYMVQNDLDEQSVITDGYKLDFPESVVSFFKGEIGQPVNGFNKDLQAVILKGQEALTARPGEYLEPVDFEKVRELLEEEQQGPVTEQDIISYVLYPKVYEQYIQTRNQYGNLSLLDTPTFFFGMRNGETVEIEIDKGKRLIIKLETISEPDENGNRTIYYAMNGQARRIYIKDENVHTNANVKPKADKSNPSHIGAQMPGSVTEVKVSVGETVKANQPLLITEAMKMETTIQAPFDGVIKQVTVNNGDTIATGDLLIEIEKATD
[12]
  Kd: 750 ± 60 nM
[13]
  Kd: 8 ± 0.6 nM
